Common to all, as to settings: result in words
The test system of data set [1] is cynomolgus CD39-expressing CHO cells (CHO-cyCD39). The data set is described as follows: Inhibition of the enzymatic activity of cellular CD39 in CHO-cyCD39. The class given is cell-based, cynomolgus (Macaca fascicularis). How it is done: The inhibition of the CD39 enzymatic activity in CD39-expressing cells by antibodies was evaluated using Cell Titer Glo™ (Promega, reference G7571) that allows assessment of ATP hydrolysis through use of a reagent that generates a luminescent signal proportional to the amount of ATP present. The assay was thus designed to permit assessment of the inhibition of ATP hydrolyzed by CD39 in the cell culture supernatant. Briefly, 5×10^4 Ramos human lymphoma cells, 5×10^3 human CD39-, cynomolgus CD39- and mouse CD39-expressing CHO cells, were incubated 1 hour at 37° C. with anti-CD39 antibodies from 30 μg/ml to […]. Cells were then incubated with 20 μM ATP for 1 additional hour at 37° C. Plates were centrifuged for 2 min at 400 g and 50 μl cell supernatant are transferred in a luminescence microplate (white wells). 50 μl CellTiter-Glo® Reagent (CTG) was added to the supernatant and emitted light was quantified after a 5 min incubation in the dark using a Enspire™ luminometer. Anti-CD39 antibody efficacy was determined by comparing emitted light in presence of antibody with ATP alone (maximal light emission) and ATP together with cells (minimal light emission).
The inhibition by antibody I-394 of the ATPase activity of CD39 in CD39-expressing cells was evaluated using the assay used for inhibition of the enzymatic activity of cellular CD39 as described above (Methods).

In data set [2] the target is T1, Human CD39-L1 (NTPDase2, ENTPD2) (Homo sapiens, UniProt Q9Y5L3).
T1 sequence (Q9Y5L3 1-472 isoform Q9Y5L3-2): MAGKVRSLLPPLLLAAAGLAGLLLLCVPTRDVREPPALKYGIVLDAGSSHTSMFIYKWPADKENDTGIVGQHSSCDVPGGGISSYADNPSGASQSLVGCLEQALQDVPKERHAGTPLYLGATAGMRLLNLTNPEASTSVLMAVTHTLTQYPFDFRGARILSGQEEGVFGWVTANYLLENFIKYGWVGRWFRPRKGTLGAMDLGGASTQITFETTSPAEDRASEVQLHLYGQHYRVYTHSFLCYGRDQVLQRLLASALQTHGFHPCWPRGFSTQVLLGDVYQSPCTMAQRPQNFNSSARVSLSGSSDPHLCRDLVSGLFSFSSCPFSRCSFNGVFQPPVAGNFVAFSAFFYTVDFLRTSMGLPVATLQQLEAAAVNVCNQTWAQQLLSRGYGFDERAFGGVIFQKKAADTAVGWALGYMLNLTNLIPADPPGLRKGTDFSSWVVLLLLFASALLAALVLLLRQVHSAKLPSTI
Briefly: ELISA titration on CD39-L1. The class given is binding. The procedure:
(§1) Antibody I-394 was tested for binding to recombinant human CD39 isoforms (Rec-huCD39 isoforms) having amino acid sequences shown below were coated in 96-well plate in PBS 1× at 500 ng/ml or 1 μg/ml at 4° C. overnight. Wells were washed in TBS Tween 20, and further saturated 2H at RT in TBS Blocking buffer. Dose range concentration of primary antibody was incubated in TBS blocking buffer for 2 h at RT. Wells were washed in TBS Tween 20. […] Optical density was measured on Enspire™ at OD=450.
A general note: ELISA stands for enzyme-linked immunosorbent assay.

The target in data set [3] is T2, Human CD39-L3 (NTPDase3, ENTPD3) (Homo sapiens, UniProt O75355).
T2 sequence (O75355 1-529): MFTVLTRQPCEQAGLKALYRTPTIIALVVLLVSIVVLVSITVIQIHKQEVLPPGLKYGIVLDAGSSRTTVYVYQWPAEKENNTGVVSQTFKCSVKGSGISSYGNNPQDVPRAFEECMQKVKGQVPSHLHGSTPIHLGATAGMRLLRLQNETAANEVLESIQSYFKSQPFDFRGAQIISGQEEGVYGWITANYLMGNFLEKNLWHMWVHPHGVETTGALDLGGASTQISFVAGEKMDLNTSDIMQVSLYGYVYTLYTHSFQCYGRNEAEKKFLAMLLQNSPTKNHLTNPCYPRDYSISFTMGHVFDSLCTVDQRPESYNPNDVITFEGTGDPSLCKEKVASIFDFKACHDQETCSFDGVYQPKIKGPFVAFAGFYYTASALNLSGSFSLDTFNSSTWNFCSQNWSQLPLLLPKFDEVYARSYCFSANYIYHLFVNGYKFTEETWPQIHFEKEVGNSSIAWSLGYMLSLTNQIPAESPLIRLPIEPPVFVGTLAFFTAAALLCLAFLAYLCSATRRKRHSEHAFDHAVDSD
The data set is described as follows: ELISA titration on CD39-L3. The data set is classed as binding. How it is done:
as §1

Data set [4] addresses T3, Human CD39-L4 (NTPDase5, ENTPD5) (Homo sapiens, UniProt O75356).
T3 sequence (O75356 25-428): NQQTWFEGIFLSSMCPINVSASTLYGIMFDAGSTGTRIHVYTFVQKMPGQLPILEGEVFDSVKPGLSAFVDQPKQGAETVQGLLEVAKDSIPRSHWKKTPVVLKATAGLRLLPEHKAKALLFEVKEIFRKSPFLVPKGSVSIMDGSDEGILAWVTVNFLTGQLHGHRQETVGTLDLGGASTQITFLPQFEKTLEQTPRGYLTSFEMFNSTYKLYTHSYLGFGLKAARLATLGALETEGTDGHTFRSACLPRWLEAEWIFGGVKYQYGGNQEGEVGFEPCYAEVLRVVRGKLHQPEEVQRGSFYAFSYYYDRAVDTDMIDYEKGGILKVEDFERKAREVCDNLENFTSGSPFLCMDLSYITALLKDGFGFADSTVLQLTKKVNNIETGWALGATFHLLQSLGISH
The data set is described as follows: ELISA titration on CD39-L4. The class given is binding. How it is done:
as §1

The text below walks through data of patent publication US11578136B2, “Compositions and methods for treating cancer” (INNATE PHARMA, priority 2017, dated 2023).

As for “I-394: anti-CD39 antibody, VH SEQ ID NO: 6, VL SEQ ID NO: 7; human IgG1 Fc with L234A/L235E/G237A/A330S/P331S”, the “blocking CD39 enzymatic activity in CHO-cyCD39” value in data set [1] is “blocks”. Also, in data set [2], the “binding to CD39-L1 in ELISA” value was “not”. Moreover, the “binding to CD39-L3 in ELISA” value in data set [3] is listed as “not”. For the same substance, the “binding to CD39-L4 in ELISA” value in data set [4] was “not”.
